Experimental data taken from patent US20220227830A1, “QD DOSING OF GIP RECEPTOR AGONIST PEPTIDE COMPOUNDS AND USES THEREOF” (Takeda Pharmaceutical Company Limited, priority 2020, published 2022).
Starred links: 1 amine or outer side, 2 acyl side, 3 side chain; linkers in the order of their positions; H or OH if unused. Non-standard residues stand in square brackets, D forms with d. Groups on a side chain read outwards from the residue. No end group written: not given here. *: point of attachment. 2OEGgE‑C16DA = O=C(O)CCCCCCCCCCCCCCC(=O)N[C@@H](CCC(=O)NCCOCCOCC(=O)NCCOCCOCC(=O)*)C(=O)O; C15 diacid = O=C(O)CCCCCCCCCCCCCC(=O)*; γGlu = O=C(O)[C@H](CCC(=O)[*:2])N[*:1]; NMeY = CN[C@@H](Cc1ccc(O)cc1)C(=O)O; AEEA = NCCOCCOCC(=O)O; Aib = CC(C)(N)C(=O)O

B1: Compound 118 (peptide)
peptide: [NMeY][Aib]EGTFISDYSI[Aib]LDR[Aib]K([AEEA-AEEA-γGlu-C15 diacid])Q[Aib]DFVNWLLAQR-NH2
modifications: N-terminus assumed
SMILES: CC[C@H](C)[C@H](NC(=O)[C@H](Cc1ccccc1)NC(=O)[C@@H](NC(=O)CNC(=O)[C@H](CCC(=O)O)NC(=O)C(C)(C)NC(=O)[C@H](Cc1ccc(O)cc1)NC)[C@@H](C)O)C(=O)N[C@@H](CO)C(=O)N[C@@H](CC(=O)O)C(=O)N[C@@H](Cc1ccc(O)cc1)C(=O)N[C@@H](CO)C(=O)N[C@H](C(=O)NC(C)(C)C(=O)N[C@@H](CC(C)C)C(=O)N[C@@H](CC(=O)O)C(=O)N[C@@H](CCCNC(=N)N)C(=O)NC(C)(C)C(=O)N[C@@H](CCCCNC(=O)COCCOCCNC(=O)COCCOCCNC(=O)CC[C@H](NC(=O)CCCCCCCCCCCCCC(=O)O)C(=O)O)C(=O)N[C@@H](CCC(N)=O)C(=O)NC(C)(C)C(=O)N[C@@H](CC(=O)O)C(=O)N[C@@H](Cc1ccccc1)C(=O)N[C@H](C(=O)N[C@@H](CC(N)=O)C(=O)N[C@@H](Cc1c[nH]c2ccccc12)C(=O)N[C@@H](CC(C)C)C(=O)N[C@@H](CC(C)C)C(=O)N[C@@H](C)C(=O)N[C@@H](CCC(N)=O)C(=O)N[C@@H](CCCNC(=N)N)C(N)=O)C(C)C)[C@@H](C)CC
B2: Compound 116 (peptide)
peptide: [NMeY][Aib]EGTFISDYSI[Aib]K([AEEA-AEEA-γGlu-C15 diacid])DR[Aib]AQ[Aib]DFVNWLLAQRPSSGAPPPS-NH2
modifications: N-terminus assumed
SMILES: CC[C@H](C)[C@H](NC(=O)[C@H](Cc1ccccc1)NC(=O)[C@@H](NC(=O)CNC(=O)[C@H](CCC(=O)O)NC(=O)C(C)(C)NC(=O)[C@H](Cc1ccc(O)cc1)NC)[C@@H](C)O)C(=O)N[C@@H](CO)C(=O)N[C@@H](CC(=O)O)C(=O)N[C@@H](Cc1ccc(O)cc1)C(=O)N[C@@H](CO)C(=O)N[C@H](C(=O)NC(C)(C)C(=O)N[C@@H](CCCCNC(=O)COCCOCCNC(=O)COCCOCCNC(=O)CC[C@H](NC(=O)CCCCCCCCCCCCCC(=O)O)C(=O)O)C(=O)N[C@@H](CC(=O)O)C(=O)N[C@@H](CCCNC(=N)N)C(=O)NC(C)(C)C(=O)N[C@@H](C)C(=O)N[C@@H](CCC(N)=O)C(=O)NC(C)(C)C(=O)N[C@@H](CC(=O)O)C(=O)N[C@@H](Cc1ccccc1)C(=O)N[C@H](C(=O)N[C@@H](CC(N)=O)C(=O)N[C@@H](Cc1c[nH]c2ccccc12)C(=O)N[C@@H](CC(C)C)C(=O)N[C@@H](CC(C)C)C(=O)N[C@@H](C)C(=O)N[C@@H](CCC(N)=O)C(=O)N[C@@H](CCCNC(=N)N)C(=O)N1CCC[C@H]1C(=O)N[C@@H](CO)C(=O)N[C@@H](CO)C(=O)NCC(=O)N[C@@H](C)C(=O)N1CCC[C@H]1C(=O)N1CCC[C@H]1C(=O)N1CCC[C@H]1C(=O)N[C@@H](CO)C(N)=O)C(C)C)[C@@H](C)CC
B3: Compound 125 (peptide)
peptide: [NMeY][Aib]EGTFISDYSIAK([Gly-Gly-Gly-Gly-Gly-γGlu-C15 diacid])DR[Aib]AQ[Aib]NFVNWLLAQSPSSGAPPPS-NH2
modifications: N-terminus assumed
SMILES: CC[C@H](C)[C@H](NC(=O)[C@H](CO)NC(=O)[C@H](Cc1ccc(O)cc1)NC(=O)[C@H](CC(=O)O)NC(=O)[C@H](CO)NC(=O)[C@@H](NC(=O)[C@H](Cc1ccccc1)NC(=O)[C@@H](NC(=O)CNC(=O)[C@H](CCC(=O)O)NC(=O)C(C)(C)NC(=O)[C@H](Cc1ccc(O)cc1)NC)[C@@H](C)O)[C@@H](C)CC)C(=O)N[C@@H](C)C(=O)N[C@@H](CCCCNC(=O)CNC(=O)CNC(=O)CNC(=O)CNC(=O)CNC(=O)CC[C@H](NC(=O)CCCCCCCCCCCCCC(=O)O)C(=O)O)C(=O)N[C@@H](CC(=O)O)C(=O)N[C@@H](CCCNC(=N)N)C(=O)NC(C)(C)C(=O)N[C@@H](C)C(=O)N[C@@H](CCC(N)=O)C(=O)NC(C)(C)C(=O)N[C@@H](CC(N)=O)C(=O)N[C@@H](Cc1ccccc1)C(=O)N[C@H](C(=O)N[C@@H](CC(N)=O)C(=O)N[C@@H](Cc1c[nH]c2ccccc12)C(=O)N[C@@H](CC(C)C)C(=O)N[C@@H](CC(C)C)C(=O)N[C@@H](C)C(=O)N[C@@H](CCC(N)=O)C(=O)N[C@@H](CO)C(=O)N1CCC[C@H]1C(=O)N[C@@H](CO)C(=O)N[C@@H](CO)C(=O)NCC(=O)N[C@@H](C)C(=O)N1CCC[C@H]1C(=O)N1CCC[C@H]1C(=O)N1CCC[C@H]1C(=O)N[C@@H](CO)C(N)=O)C(C)C
B4: Compound 115 (peptide)
peptide: [NMeY][Aib]EGTFISDYSI[Aib]K([AEEA-γGlu-γGlu-γGlu-C15 diacid])DR[Aib]AQ[Aib]NFVNWLLAQR-NH2
modifications: N-terminus assumed
SMILES: CC[C@H](C)[C@H](NC(=O)[C@H](Cc1ccccc1)NC(=O)[C@@H](NC(=O)CNC(=O)[C@H](CCC(=O)O)NC(=O)C(C)(C)NC(=O)[C@H](Cc1ccc(O)cc1)NC)[C@@H](C)O)C(=O)N[C@@H](CO)C(=O)N[C@@H](CC(=O)O)C(=O)N[C@@H](Cc1ccc(O)cc1)C(=O)N[C@@H](CO)C(=O)N[C@H](C(=O)NC(C)(C)C(=O)N[C@@H](CCCCNC(=O)COCCOCCNC(=O)CC[C@H](NC(=O)CC[C@H](NC(=O)CC[C@H](NC(=O)CCCCCCCCCCCCCC(=O)O)C(=O)O)C(=O)O)C(=O)O)C(=O)N[C@@H](CC(=O)O)C(=O)N[C@@H](CCCNC(=N)N)C(=O)NC(C)(C)C(=O)N[C@@H](C)C(=O)N[C@@H](CCC(N)=O)C(=O)NC(C)(C)C(=O)N[C@@H](CC(N)=O)C(=O)N[C@@H](Cc1ccccc1)C(=O)N[C@H](C(=O)N[C@@H](CC(N)=O)C(=O)N[C@@H](Cc1c[nH]c2ccccc12)C(=O)N[C@@H](CC(C)C)C(=O)N[C@@H](CC(C)C)C(=O)N[C@@H](C)C(=O)N[C@@H](CCC(N)=O)C(=O)N[C@@H](CCCNC(=N)N)C(N)=O)C(C)C)[C@@H](C)CC

Columns and labels:
[1] = target: T1, full-length human GIPR with an N-terminal FLAG tag (human, UniProt P48546 22-466); assay: cell-based or functional assay
T1 sequence (looked up): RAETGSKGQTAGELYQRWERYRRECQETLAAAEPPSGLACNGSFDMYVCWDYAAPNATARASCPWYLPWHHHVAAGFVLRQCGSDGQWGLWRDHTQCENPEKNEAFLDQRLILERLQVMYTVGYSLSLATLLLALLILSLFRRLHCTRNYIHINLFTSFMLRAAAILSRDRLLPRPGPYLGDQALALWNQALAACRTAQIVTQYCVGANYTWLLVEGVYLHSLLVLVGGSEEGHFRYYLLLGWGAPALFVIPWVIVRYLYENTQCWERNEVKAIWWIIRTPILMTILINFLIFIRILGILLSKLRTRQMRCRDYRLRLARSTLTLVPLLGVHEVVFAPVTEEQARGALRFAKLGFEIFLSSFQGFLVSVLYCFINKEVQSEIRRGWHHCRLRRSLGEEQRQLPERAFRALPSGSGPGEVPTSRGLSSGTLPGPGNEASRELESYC

[2] = target: full-length human GLP-1R with an N-terminal FLAG tag (human, UniProt P43220 24-463); assay: cell-based or functional assay

Row | Binder | Human GIPR cAMP, HEK293T EC50 [1] | Human GLP1R cAMP HEK293T EC50 [2]
1 | [NMeY][Aib]EGTFISDYSIAK(2OEGgE‑C16DA)DR[Aib]AQ[Aib]NFVNWLLAQK [Compound 11] | 0.0003 nM | 145 nM
2 | [NMeY][Aib]EGTFISDYSI[Aib]KDR[Aib]AQ[Aib]NFVNWLLAQRPSSKKKKKK-NH2 (not fully specified (residue 14, N-terminus)) [Compound 124] | 0.004 nM | 126 nM
3 | [NMeY][Aib]EGTFISDYSI[Aib]LDR[Aib]AQ[Aib]NFVNWLLAQKPSSGAPPPS-NH2 (not fully specified (residue 30)) [Compound 123] | 0.0004 nM | 22.9 nM
4 | B1 | 0.0009 nM | 525 nM
5 | [NMeY][Aib]EGTFISDYSI[Aib]LDR[Aib]KQ[Aib]DFVNWLLAQR-NH2 (not fully specified (residue 18)) [Compound 117] | 0.0006 nM | 1000 nM
6 | [NMeY][Aib]EGTFISDYSIALDR[Aib]KQ[Aib]NFVNWLLAQSPSSGAPPPS-NH2 (not fully specified (residue 18, N-terminus)) [Compound 119] | 0.0005 nM | 1000 nM
7 | [NMeY][Aib]EGTFISDYSI[Aib]LDRKAQ[Aib]NFVNWLLAQRPSSGAPPPS-NH2 (not fully specified (residue 17)) [Compound 122] | 0.0004 nM | 20.4 nM
8 | B2 | 0.0003 nM | 339 nM
9 | B3 | 0.0002 nM | 166 nM
10 | [NMeY][Aib]EGTFISDYSIALDR[Aib]AQ[Aib]KFVNWLLAQR-NH2 (not fully specified (residue 21)) [Compound 121] | 0.0003 nM | 5.5 nM
11 | B4 | 0.0005 nM | 437 nM
